Assay results taken from patent publication US20220041744A1 (INNATE PHARMA, published 2022).
Where a chain is given by its changes, count along the chain named.

T1: human recombinant soluble CD73 protein (human, UniProt P21589 27-547)
T1 construct: also called huCD73; rhCD73
T1 sequence: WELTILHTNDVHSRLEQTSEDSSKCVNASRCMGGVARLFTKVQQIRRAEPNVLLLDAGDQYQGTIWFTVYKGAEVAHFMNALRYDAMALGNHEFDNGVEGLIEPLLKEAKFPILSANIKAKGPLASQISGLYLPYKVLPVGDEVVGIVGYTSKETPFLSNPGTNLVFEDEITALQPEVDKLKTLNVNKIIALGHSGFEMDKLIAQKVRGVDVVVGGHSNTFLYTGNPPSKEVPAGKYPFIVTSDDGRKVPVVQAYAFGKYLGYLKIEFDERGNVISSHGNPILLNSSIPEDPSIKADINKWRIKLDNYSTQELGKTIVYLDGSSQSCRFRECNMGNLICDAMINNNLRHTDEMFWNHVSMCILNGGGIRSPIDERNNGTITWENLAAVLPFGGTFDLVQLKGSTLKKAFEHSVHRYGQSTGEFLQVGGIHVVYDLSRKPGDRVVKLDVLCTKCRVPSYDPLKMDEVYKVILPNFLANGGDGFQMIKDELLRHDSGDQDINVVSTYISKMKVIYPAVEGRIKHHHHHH

T2: human CD73 expressed at the surface of cells (human, UniProt P21589 27-549)
T2 construct: T cells in the proliferation assays; also called huCD73; CD73-expressing cells
T2 sequence: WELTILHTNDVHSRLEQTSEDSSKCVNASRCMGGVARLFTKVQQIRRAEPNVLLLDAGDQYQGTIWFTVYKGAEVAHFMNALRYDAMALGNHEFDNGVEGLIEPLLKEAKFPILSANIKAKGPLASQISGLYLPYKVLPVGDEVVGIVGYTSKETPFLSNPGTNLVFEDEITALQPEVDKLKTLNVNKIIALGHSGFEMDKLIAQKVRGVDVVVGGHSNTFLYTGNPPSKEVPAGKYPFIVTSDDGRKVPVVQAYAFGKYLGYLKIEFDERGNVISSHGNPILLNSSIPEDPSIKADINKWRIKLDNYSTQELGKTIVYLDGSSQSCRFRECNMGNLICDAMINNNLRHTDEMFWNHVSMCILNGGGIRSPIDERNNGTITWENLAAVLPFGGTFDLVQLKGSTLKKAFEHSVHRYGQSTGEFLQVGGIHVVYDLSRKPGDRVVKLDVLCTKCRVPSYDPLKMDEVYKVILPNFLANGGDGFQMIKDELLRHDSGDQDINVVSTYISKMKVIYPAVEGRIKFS

B1: chimeric parental 3C12 antibody (antibody, human IgG1, V domains shown)
VH: QIQLQQSGPELVKPGASVKVSCKASGYAFASYNMNWVKQSHGKSLDWIGYIDPYNGGSSYNLTFKGKATLTVDKSSTTAYMHLNSLTSEDSAVYYCARGYGNYKAWFAYWGQGTLVTVSA
VL: DVVMTQTPKFLLVSAGDRVTITCKASQSVSNDVAWYQQKPGQSPKLLIYYASTRYTGVPDRFTGSGYGTDFTFTISTVQAEDLAVYFCQQDYSSLTFGAGTKLELK
notes: also called HPLP; parental antibody 3C12
B2: H1L0 (antibody, human IgG1, V domains shown)
VH: QIQLVQSGAEVKKPGASVKVSCKASGYTFTSYNMYWVRQAPGQRLEWMGYIDPYNGGSSYNLTFKGRVTITRDKSASTAYMELSSLRSEDTAVYYCARGYGNYKAWFAYWGQGTLVTVSS
VL: DIQMTQSPSSLSASVGDRVTITCKASQSVSNDVAWYQQKPGKAPKLLIYYASTRYTGVPSRFSGSGSGTDFTFTISSLQPEDIATYYCQQDYSSLTFGQGTKLEIK
notes: L0 VL limits counted by alignment with L1
B3: H2L1 (antibody, human IgG1, V domains shown)
VH: B2 VH with T28A, R44S, R72V
VL: B2 VL with S67Y
B4: H1L2 (antibody, human IgG1, V domains shown)
VH: B2 VH
VL: B2 VL with S60D, S67Y
B5: H3L0 (antibody, human IgG1, V domains shown)
VH: B2 VH with T28A, R44S, M48I, R67K, V68A, R72V
VL: B2 VL
notes: as for B2
B6: H2L0 (antibody, human IgG1, V domains shown)
VH: B2 VH with T28A, R44S, R72V
VL: B2 VL
notes: as for B2
B7: H3L1 (antibody, human IgG1, V domains shown)
VH: B2 VH with T28A, R44S, M48I, R67K, V68A, R72V
VL: B2 VL with S67Y
B8: H4L1 (antibody, human IgG1, V domains shown)
VH: B2 VH with T28A, T30A, R44S, M48I, R67K, V68A, I70L, R72V
VL: B2 VL with S67Y
B9: H1L1 (antibody, human IgG1, V domains shown)
VH: B2 VH
VL: B2 VL with S67Y

What was measured:
[1] = target: T1, human recombinant soluble CD73 protein; assay: SPR, Ab captured on Protein A, soluble huCD73 as analyte
Procedure: SPR measurements were performed on a Biacore™ T200 apparatus at 25° C. Protein-A (GE Healthcare) was immobilized on a Sensor Chip CM5 (GE Healthcare). […] The entire sensorgram sets were fitted using the 1:1 kinetic binding model. Bivalent affinities and kinetic association and dissociation rate constants are calculated.
The binding of the antibodies in Table 2 of Example 1 were tested for binding to human soluble dimeric CD73 proteins and were cloned, produced and purified. Affinity and association and dissociation constants of humanized variants were assessed by SPR analysis.

[2] = target: T3, cynomolgus CD73 expressed on transfected cells (cynomolgus monkey (Macaca fascicularis)); assay: flow cytometry titration on transfected cells expressing cynomolgus CD73, PE goat anti-human IgG (H+L) detection, MFI
T3 construct: cell-surface expressed on a transfected cell line; Same protein as m38, which is the recombinant soluble form; It is kept apart from m38 as the first reading kept m36 and m37 apart for human CD73; also called cynomolgus CD73 protein (cell surface); cyCD73

[3] = target: T2, human CD73 expressed at the surface of …; assay: flow cytometry titration on transfected cells expressing human CD73, PE goat anti-human IgG (H+L) detection, MFI

Row | Binder | Kd [1] | EC50 (read off the curve) [2] | koff [1] | kon [1] | EC50 (read off the curve) [3]
1 | B1 | 0.68 nM | ~0.2 µg/mL | – | – | –
2 | B2 | 28.7 nM | – | 0.00296 s⁻¹ | 103000 M⁻¹ s⁻¹ | ~0.2 µg/mL
3 | B3 | 1.4 nM | – | 0.000118 s⁻¹ | 83700 M⁻¹ s⁻¹ | ~0.1 µg/mL
4 | B4 | 0.6 nM | ~0.2 µg/mL | 8.38e-05 s⁻¹ | 135000 M⁻¹ s⁻¹ | –
5 | B5 | 29.4 nM | ~0.2 µg/mL | 0.00797 s⁻¹ | 271000 M⁻¹ s⁻¹ | ~0.2 µg/mL
6 | B6 | – | ~0.2 µg/mL | – | – | ~0.2 µg/mL
7 | B7 | 1.8 nM | – | 0.00014 s⁻¹ | 78900 M⁻¹ s⁻¹ | ~0.3 µg/mL
8 | B8 | 1.7 nM | ~0.2 µg/mL | 0.000179 s⁻¹ | 106000 M⁻¹ s⁻¹ | –
9 | B9 | 0.8 nM | ~0.2 µg/mL | 8.43e-05 s⁻¹ | 100000 M⁻¹ s⁻¹ | –
